The record followed here is patent publication US20210363266A1 (JIANGSU HENGRUI MEDICINE, published 2021).

Like-named read-outs stand apart in the source and are kept apart here.

Assay [1] addresses T1, human 4-1BB His protein (Sinobiological, Beijing #10041-H08H) (human, UniProt Q07011 24-186, biotinylated in the capture ELISA (sites not given)).
T1 construct: Bought protein; also called biotinylated 4-1BB-his protein; not shown: His tag
The assay can be described thus: capture ELISA, antibody captured, biotinylated 4-1BB-his. As for the experimental part:
The goat anti-mouse IgG secondary antibody (Jackson Immuno Research, cat #115-006-071) was diluted to a concentration of 2 μg/ml with PBS buffer, pH 7.4, added into a 96-well microtiter plate at 100 μl/well, and placed in an incubator at 37° C. for 2 hours. The plate was washed once with PBST, 200 μl/well of 5% skim milk (skim milk powder, Bright Dairy) blocking solution diluted with PBST was added, and incubated at 37° C. for 2 hours or at 4° C. overnight (16-18 hours) for blocking. After the blocking was finished, the blocking solution was discarded and the plate was washed 4 times with PBST.
The test mouse sera or antibodies were diluted to various concentrations with 5% NHS sample dilution solution (2.5% skim milk in PBST), incubated at room temperature for 40 minutes, added into the plate at 100 μl/well, and incubated at 37° C. for 40 minutes. After the incubation, the plate was washed 4 times with PBST, 100 μl/well of the biotinylated 4-1BB-his protein (Sinobiological, Beijing #10041-H08H) diluted with the sample dilution solution was added, and incubated at 37° C. for 40 minutes. After the incubation, the plate was washed 4 times with PBST, 100 μl/well of HRP-labeled streptavidin (Jackson Immuno Research, cat #016-030-084) diluted with PBST was added, and incubated at 37° C. for 40 minutes. The plate was washed 4 times with PBST, 100 μl/well of TMB chromogenic substrate (Huzhou Innoreagents Biotechnology Co., Ltd.) was added, incubated at room temperature for 10-15 min in the dark, and 50 μl/well 1M H₂SO₄ was added to terminate the reaction. The absorbance was read at 450 nm under a microplate reader (Beijing Prang New Technology Co., Ltd., Model DNM-9602) and the resulting data were analyzed. The capture ELISA results of three hybridoma mouse antibodies and the Pfizer reference antibody MOR7480 and the BMS reference antibody Urelumab were shown in FIG. 1.
For orientation: An ELISA detects its analyte on a solid surface through an enzyme-linked reagent.

The target in assay [2] is human 4-1BB on the reporter cell strain HEK293F-h4-1BB-NFkB (human, UniProt Q07011 24-255). The assay can be described thus: cell-based or functional assay.
human 4-1BB on the reporter cell strain HEK293F-h4-1BB-NFkB, sequence (Q07011 24-255): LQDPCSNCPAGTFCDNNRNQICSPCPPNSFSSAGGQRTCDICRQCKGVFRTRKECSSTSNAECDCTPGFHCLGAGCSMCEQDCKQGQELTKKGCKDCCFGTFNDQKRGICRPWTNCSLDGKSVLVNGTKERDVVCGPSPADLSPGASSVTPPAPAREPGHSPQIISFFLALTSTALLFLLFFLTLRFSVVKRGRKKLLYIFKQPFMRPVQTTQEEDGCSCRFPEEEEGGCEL
The target in assay [3] is T1, human 4-1BB His protein …. Kind of assay: blocking ELISA: 4-1BB-his coated, antibody varied, competitor 4-1BBL-Fc at 0.8 ng/ml. As for the experimental part: The 4-1BB-his protein was diluted to a concentration of 2 μg/ml with a carbonate buffer pH 9.6, and added into a 96-well microtiter plate at a volume of 100 μl/well, and placed in an incubator at 37° C. for 2 hours. The plate was washed once with PBST, 200 μl/well of 5% skim milk (skim milk powder, Bright Dairy) blocking solution diluted with PBST was added, and incubated at 37° C. for 2 hours or at 4° C. overnight (16-18 hours) for blocking. After the blocking was finished, the blocking solution was discarded and the plate was washed 4 times with PBST.
The test mouse sera or antibodies and internal control 4-1BBL were diluted to various concentrations with a sample diluent solution (2.5% skim milk in PBST), added into a plate at 100 μl/well, and incubated in an incubator at 37° C. for 40 minutes. After the incubation, the plate was washed 4 times with PBST, 100 μl/well of 0.8 ng/ml 4-1BBL-Fc (Acro, #41L-H5257) protein diluted with a sample dilution solution was added, and incubated at 37° C. for 40 minutes. […] The absorbance was read at 450 nm under a microplate reader (Beijing Prang New Technology Co., Ltd., Model DNM-9602) and the resulting data were analyzed. […]

Assay [4] deals with T1, human 4-1BB His protein …. The assay can be described thus: SPR Biacore T200, antibody amine-coupled, 4-1BB His as analyte, 1:1 model. How it is done:
(§1) The recombinant anti-4-1BB antibodies to be tested of the present application were covalently linked to CMS (GE) chip by NHS standard amino coupling method with a kit available from Biacore. Then, a series of gradient concentrations of human 4-1BB His protein (Sinobiological, Beijing #10041-H08H) diluted in the same buffer were injected at a flow rate of 10 μL/min. Regeneration was performed with regeneration reagents provided in the kit. Antigen-antibody binding kinetics were followed for 3 minutes and dissociation kinetics were followed for 10 minutes. The resulting data were analyzed using 1:1 (Langmuir) binding model with BIAevaluation software available from GE.
In general terms: Surface plasmon resonance follows binding to a sensor surface in real time, without labels.

Assay [5] concerns the target T1, human 4-1BB His protein …. Described as above. As for the experimental part:
as §1
This is another data set of the same source.

For assay [6], the target named is T1, human 4-1BB His protein …. The assay can be described thus: SPR Biacore T200.

B1: murine mAb B1A7 (antibody, V domains shown)
VH: QVTLKESGPGILQPSQTLSLTCSFSGFSLSTSGMGVGWIRQPSGKGLEWLAHIWWDDVKRYNPALKSRLTISKDTSSSQVFLKIASVDTADTATYYCAQMTSSVFAYWGQGTLVTVSA
VL: DIVLTQSPDSLAVSLGQRATISCRASESVDSYGHSFMHWYQQKPGQPPKLLIYRASNLESGIPARFSGSGSRTDFTLTINVVEADDVATYYCHQSYEEPWTFGGGTKLEIK
notes: Murine hybridoma antibody
Broadly, the EC50 is the concentration giving half of the maximal effect. Read a low EC50 as greater potency. Take B1: the EC50 was determined as 0.0559 µg/mL in assay [1] and 0.417 µg/mL in assay [3]. This molecule also registered a luciferase activity in assay [2] of 965.

B2: humanized antibody huB1E7 (VH-c heavy chain and VL-c light chain) (antibody, human IgG2, kappa, V domains shown)
VH: EVQLVQSGAEVKKPGSSVKVSCKASGYTFTSYGLNWVRQAPGQGLEWMGYINPGSGYTKYNEKFEGRVTITADKSTSTAYMELSSLRSEDTAVYYCARWGLGRNWNFAVWGQGTLVTVSS
VL: DIVMTQSPDSLAVSLGERATINCRASESVDSYGNTFMHWYQQKPGQPPKLLIYRASNLESGVPDRFSGSGSGTDFTLTISSLQAEDVAVYYCQQSNEDPLTFGQGTKLEIKR
notes: also called huB1E7-IgG1
A word on the Kd: it is the constant that tells how readily two partners part at equilibrium. A high value points to a looser complex. Broadly, the koff is a measure of how fast the partners let go of each other. Read a low koff as slow dissociation. One may read the kon as the rate constant with which the complex forms. Low readings indicate slow association, high ones fast association. For B2, in assay [4], the Kd is 1.95 nM, the koff was 0.00663 s⁻¹ and the association rate constant (kon) came out at 3.39e+06 M⁻¹ s⁻¹.

B3: murine mAb B1E7 (antibody, V domains shown)
VH: EVQLQQSGAELVRAGSSVEMSCKASGYTFTSYGLNWVKQRPGQGLEWIGYINPGSGYTKYNEKFEGKTTLTVDKSSSTVYMQLRSLTSEDSAVYFCARWGLGRNWNFAVWGTGTTVTVSS
VL: DIVLTQSPASLAVSLGQRATMSCRASESVDSYGNTFMHWYQQKPGQPPKLLIYRASNLESGIPARFSGSGSGTDFTLTINPVEADDVATYYCQQSNEDPLTFGSGTKLEIK
notes: Murine hybridoma antibody
In the case of B3, the EC50 was determined as 0.332 µg/mL in assay [1] and 0.592 µg/mL in assay [3]. For the same molecule, the luciferase activity in assay [2] was 1100.

B4: chimeric antibody ChB1E7 (antibody, V domains shown)
VH: B3 VH
VL: B3 VL
In assay [5], B4 gave a Kd of 1.48 nM, a koff of 0.006 s⁻¹ and an on-rate (kon) of 4.05e+06 M⁻¹ s⁻¹.

B5: MOR7480 (Pfizer) (antibody, V domains shown)
VH: QVQLVQSGAEVKKPGESLKISCKGSGYSFSTYWISWVRQMPGKGLEWMGKIYPGDSYTNYSPSFQGQVTISADKSISTAYLQWSSLKASDTAMYYCARGYGIFDYWGQGTLVTVSS
VL: DIELTQPPSVSVAPGQTARISCSGDNIGDQYAHWYQQKPGQAPVVVIYQDKNRPSGIPERFSGSNSGNTATLTISGTQAEDEADYYCATYTGFGSLAVFGGGTKLTVL
Consider B5, for which, in assay [1], a half-maximal effect (EC50) was put at 0.084 µg/mL. In addition, in assay [4], the Kd turned out to be 0.417 nM, the dissociation rate constant (koff) was determined as 0.000336 s⁻¹ and the kon was 805000 M⁻¹ s⁻¹. In assay [5], this molecule returned a Kd of 0.417 nM, a koff of 0.000336 s⁻¹ and a kon of 805000 M⁻¹ s⁻¹.

B6: humanized antibody huB1E10 (VH-c heavy chain and VL-c light chain) (antibody, human IgG2, kappa, V domains shown)
VH: EVQLVESGGGVVQPGRSLRLSCAASGFTFGDYYMYWVRQAPGKGLEWVATISEGGSYTYYPDNVKGRFTISRDNAKNTLYLQMNSLRAEDTAVYYCARYYSKALYAMDYWGRGTLVTVSS
VL: EIVLTQSPATLSLSPGERATLSCRASKSVSTSGFSYIHWYQQKPGQPPRLLIYTASNLESGVPARFSGSGSGTDFTLTISSLEPEDFAVYYCQHSRELPLTFGQGTKLEVKR
notes: also called huB1E10-IgG1
In assay [4], B6 came in with a Kd of 0.267 nM, an off-rate (koff) of 0.00263 s⁻¹ and a kon of 9.85e+06 M⁻¹ s⁻¹. The “fold affinity against the reference antibody MOR7480” value in assay [6] is approximately 2 fold.

B7: murine mAb B1E10 (antibody, V domains shown)
VH: EVQLVESGGGLVEPGGSLKLSCAASGFTFGDYYMYWVRQTPEKRLEWVATISDGGSYTYYPDNVKGRFTISRDNAKNSLDLQMSHLKSEDTAMYYCARYYSKALYAMDYWGRGTSVTVSS
VL: DIVLTQSPASLAVSLGQRATLSCRASKSVSTSGFSYIHWYQQKPGQPPKLLIYTASNLESGVPARFSGSGSGTDFTLNIHPVEEEDAATYYCQHSRELPLTFGAGTKLEVK
notes: Murine hybridoma antibody
For B7, in assay [1], the EC50 was determined as 0.881 µg/mL. The luciferase activity in assay [2] is 2520.

B8: chimeric antibody ChB1E10 (antibody, V domains shown)
VH: B7 VH
VL: B7 VL
In assay [5], B8 displayed a Kd of 0.423 nM, a koff of 0.000542 s⁻¹ and a kon of 1.28e+06 M⁻¹ s⁻¹.
